This is an account of results in patent US12449421 (SICHUAN CANCER HOSPITAL, dated 2025).

The target of test [1] is recombinant human CD79B extracellular domain (amino acids 29-159), huCD79B (human) (UniProt P40259). As to the kind of experiment: Biacore SPR, antibody captured on Protein A chip, huCD79B as analyte, 1:1 kinetic model. A general note: SPR reads the build-up and loss of mass on a sensor chip optically.
Test [2] deals with CD79B protein as expressed in Daudi cells and diffuse large B-cell lymphoma tissue (UniProt P40259). As to the kind of experiment: immunohistochemistry on 69 diffuse large B-cell lymphoma tissue cases; share of cases stained positive.
Test [3] concerns the target T1, recombinant human CD79B extracellular domain (amino acids 29-159), huCD79B (human, UniProt P40259 29-159).
T1 construct: Immunogen and SPR analyte; No tag or fusion partner is stated; also called human CD79B antigen; CD79B antigen
T1 sequence: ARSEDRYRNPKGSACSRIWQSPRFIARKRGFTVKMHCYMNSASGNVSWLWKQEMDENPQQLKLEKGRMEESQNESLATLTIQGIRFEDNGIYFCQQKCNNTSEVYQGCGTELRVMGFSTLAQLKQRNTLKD
As to the kind of experiment: Biacore SPR, antibody captured on Protein A chip, huCD79B as analyte, 1:1 kinetic model. As to the method: The ability of the antibody to bind to the antigen is characterized using Biacore™ Surface Plasmon Resonance (SPR). Specifically, a Protein A chip was used (with channel 1 as the reference channel and channel 2 as the ligand channel). The antibody was immobilized as the ligand in channel 2 of the Protein A chip at a concentration of 10 µg/ml, with an association time of 30 seconds and a flow rate of […].
In this embodiment, the analyte was flowed through both channel 1 and channel 2, with an association time of 60 seconds, a dissociation time of 90 seconds, and a flow rate of 30 µl/min. After the analyte injection was completed, the chip surface was regenerated using glycine buffer with a pH of 1.5. The ligand was immobilized before each analyte injection, and the chip surface was regenerated with the regeneration solution after the analyte injection was completed.
The affinity of the CD79B antibody for human CD79B antigen at the different concentrations mentioned above was determined using Biacore™ SPR. The corresponding analysis software was used to analyze the binding and dissociation with a 1:1 kinetic model.

A word on the Kd: it is a measure of binding affinity in units of concentration. As usually defined, the koff is the rate constant with which the complex falls apart. A word on the kon: it is the rate constant with which the complex forms. Take “commercially available CD79B antibody (Abcam, EPR6861)”: in test [1], the Kd was determined as 19.3 nM, the koff amounted to 0.00547 s⁻¹ and the on-rate constant (kon) is 283000 M⁻¹ s⁻¹. Besides, in test [2], the Pos. Rate (share of IHC-positive cases) worked out at 100%.

B1: LBP2-CD79B (anti-CD79B recombinant rabbit monoclonal antibody) (antibody, V domains shown)
VH: QSLEESGGRLVTPGGSLTLTCTVSGIDLSTNVMRWVRQAPGKGLEWIGSMLISGNIYYASWAKGRLTISKTSSTTVDLKMTSLTAADTATYFCTRGRLWGQGTLVTVSS
VL: AQVLTQTPSSVSAAVGGTVTINCQSSQSVWANNYLAWYQQKPGQPPKILIASASTLASGVSSRFKGSGSGTQFTLTISDVQCDDAATYYCLGSYDCSSADCNAFGGGTEVVVKG
notes: the light chain variable region begins QVLTQTP; also called Anti-CD79B Protein Monoclonal Antibody; LBP2-CD79B monoclonal antibody
Consider B1, for which, in test [3], the Kd was 0.877 nM, the koff was 0.000775 s⁻¹ and the kon is 844000 M⁻¹ s⁻¹.
